Substrate in the data set: N[C@@H](CC(=O)c1ccccc1NC=O)C(=O)O
The data set can be described thus: purified protein. The class given is biochemical, Drosophila melanogaster. As to conditions: 50 mM potassium phosphate pH 7.4, 22 °C, 0.02–1.00 mM NFK.

B1: KFase (kynurenine formamidase) (Drosophila melanogaster) (protein)
chain: MYNPRCKDLDRDYFPSYHTTRFQDQPEPNLAVLEHFVRVTKQHGRELTEKQGITVDHLRYGEGRQLVDVFYSEKTTNQAPLFVFVHGGYWQEMDMSMSCSIVGPLVRRGYRVAVMDYNLCPQVTLEQLMTQFTHFLNWIFDYTEMTKVSSLTFAGHSAGAHLLAQILMRPNVITAQRSKMVWALIFLCGVYDLRELSNLESVNPKNILGLNERNIESVSPMLWEYTDVTVWNSTKIYVVAAEHDSTTFIEQSRHYADVLRKKGYKASFTLFKGYDHFDIIEETAIDDSDVSRFLRNIEIE
Take B1: the Km (in general, the substrate concentration at which the rate is half of its maximum) amounted to 320 ± 60 µM; the kcat – broadly, the number of substrate molecules converted per active site and unit of time at saturation – was 26.4 ± 4.45 s⁻¹.

For the origin of these results see paper PMC3700353.
